Data as given in patent US10434088B2, “Methods related to administering immunosuppressants and therapeutic macromolecules at a reduced pharmacodynamically effective dose” (Selecta Biosciences, Inc., priority 2013, dated 2019).

B1: aggOVA: chicken ovalbumin induced using high sheer to form aggregates to increase its immunogenicity (protein, UniProt P01012 2-386, looked up)
Ovalbumin: GSIGAASMEFCFDVFKELKVHHANENIFYCPIAIMSALAMVYLGAKDSTRTQINKVVRFDKLPGFGDSIEAQCGTSVNVHSSLRDILNQITKPNDVYSFSLASRLYAEERYPILPEYLQCVKELYRGGLEPINFQTAADQARELINSWVESQTNGIIRNVLQPSSVDSQTAMVLVNAIVFKGLWEKAFKDEDTQAMPFRVTEQESKPVQMMYQIGLFRVASMASEKMKILELPFASGTMSMLVLLPDEVSGLEQLESIINFEKLTEWTSSNVMEERKIKVYLPRMKMEEKYNLTSVLMAMGITDVFSSSANLSGISSAESLKISQAVHAAHAEINEAGREVVGSAEAGVDAASVSEEFRADHPFLFCIKHIATNAVLFFGRCVSP
modifications: shear-induced aggregates
B2: pOVA: immunogenic form of particulate Ovalbumin (protein, UniProt P01012 2-386, looked up)
Ovalbumin: B1 Ovalbumin
modifications: particulate form
notes: immunogenic form of particulate Ovalbumin

Assays:
[1] = test system: anti-OVA antibody (Ab) response; assay: Example 2: anti-OVA antibody response to aggOVA; assay type: in vivo, C57BL/6 mice; conditions: 25 μg aggOVA i.v. d0, 14, 28 then boosts; nanocarriers i.v. (100 μg rapamycin) concomitantly d0, 14, 28 only; days 25, 40 and next 60 days; FIG. 3
[2] = test system: anti-OVA IgG antibody response; assay: Example 9: anti-OVA IgG antibody titers; assay type: in vivo, C57BL/6; conditions: 2.5 μg pOVA i.v. weekly; 0.2 mg nanocarrier admixed days 0, 7, 14; FIG. 11
Experimental: The control group of C57BL/6 age-matched (5-6 weeks) female were injected i.v. in the tail vein with 2.5 μg of an immunogenic form of particulate Ovalbumin (pOVA) and 2 μg of Keyhole Limpet Hemocyanin (KLH) s.c. in the hind limb once a week for 49 days (d0, 7, 14, 20, 28, 35, 42, 49).

Molecule	anti-OVA antibody (IgG) response [1]	anti-OVA IgG antibody titers at day 54 [2]
B1	prominent anti-OVA antibody (Ab) response	–
B2	–	robust immune response
